Where two headings read alike, the source gives them in different places.
How the values were obtained:
[1] = molecular target: T1, cTnI quality control product recombinant protein (human, UniProt P19429 1-210, limits assumed); experiment: AMC biosensor, antibody on sensor
T1 construct: the assay paragraphs only say cTnI; also called cardiac troponin I; cTnI antigen
Protocol: (§1) Operating process: it is equilibrated in Buffer 1 (PBST) for 60 s, the antibody is immobilized in an antibody solution for 300 s, incubated in Buffer 2 (PBST) for 180 s, bound in antigen solution for 420 s, dissociated in the Buffer 2 for 1200 s, 10 mM of GLY solution with pH 1.69 and Buffer 3 are used for sensor regeneration, and data is output.

[2] = molecular target: T1, cTnI quality control product …; experiment: AMC biosensor, antibody on sensor; remark: listed apart in the source
Protocol: as §1

[3] = molecular target: T1, cTnI quality control product …; experiment: capture ELISA, antibody 1.372 ng/ml, cTnI 0.15 ug/ml
Protocol: (§2) After mutation, the antibody activity is detected, 1 μg/ml of goat anti-mouse IgG is diluted with coating solution to coat a microwell plate, 100 μL per well, and overnight at 4 DEG C.; on the next day, it is washed twice with washing solution, and patted dry; blocking solution (20% BSA+80% PBS) is added, 120 μL per well, 37 DEG C., and 1 h, and patted dry; a diluted cTnI monoclonal antibody is added, 100 μL/well, 37 DEG C., and 60 min; liquid in the plate is shaken off, patted dry, and […] of mouse negative blood is added for blocking, 120 μl per well, 37 DEG C., 1 h; liquid in the plate is shaken off, patted dry, a diluted cTnI antigen (0.15 μg/ml) is added, 100 μL per well, 37 DEG C., and 40 min; it is washed for 5 times with the washing solution, and patted dry; another strain of the cTnI monoclonal antibody (1:5K) labeled with HRP is added, 100 μL per well, 37 DEG C., and 30 min; color developing solution A (50 μL/well) is added, color developing solution B (50 μL/well) is added, 10 min; stop solution is added, 50 μL/well; and a OD value is read at 450 nm (refer to 630 nm) on a microplate reader.

[4] = molecular target: T1, cTnI quality control product …; experiment: capture ELISA, antibody 4.115 ng/ml, cTnI 0.15 ug/ml
Protocol: as §2

[5] = molecular target: T1, cTnI quality control product …; experiment: capture ELISA, antibody 12.346 ng/ml, cTnI 0.15 ug/ml
Protocol: as §2

[6] = molecular target: T1, cTnI quality control product …; experiment: capture ELISA, antibody 37.037 ng/ml, cTnI 0.15 ug/ml
Protocol: as §2

[7] = molecular target: T1, cTnI quality control product …; experiment: capture ELISA, antibody 111.111 ng/ml, cTnI 0.15 ug/ml
Protocol: as §2

[8] = molecular target: T1, cTnI quality control product …; experiment: capture ELISA, antibody 333.333 ng/ml, cTnI 0.15 ug/ml
Protocol: as §2

[9] = molecular target: T1, cTnI quality control product …; experiment: capture ELISA, antibody 1000.000 ng/ml, cTnI 0.15 ug/ml
Protocol: as §2

[10] = molecular target: T1, cTnI quality control product …; experiment: capture ELISA, antibody 0.000 ng/ml (blank), cTnI 0.15 ug/ml
Protocol: as §2

T1 sequence (P19429 whole entry): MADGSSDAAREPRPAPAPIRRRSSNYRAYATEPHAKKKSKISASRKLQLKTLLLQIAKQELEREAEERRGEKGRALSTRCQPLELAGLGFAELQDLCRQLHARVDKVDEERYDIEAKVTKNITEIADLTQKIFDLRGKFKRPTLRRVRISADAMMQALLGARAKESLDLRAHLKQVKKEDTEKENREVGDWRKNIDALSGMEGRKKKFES

| Binder | Kd [1] [nM] | koff [1] [s⁻¹] | kon [1] [M⁻¹ s⁻¹] | Kd [2] [nM] | koff [2] [s⁻¹] | kon [2] [M⁻¹ s⁻¹] | OD 450 nm [3] [OD] | OD 450 nm [4] [OD] | OD 450 nm [5] [OD] | OD 450 nm [6] [OD] | OD 450 nm [7] [OD] | OD 450 nm [8] [OD] | OD 450 nm [9] [OD] | OD 450 nm [10] [OD] |
| --- | --- | --- | --- | --- | --- | --- | --- | --- | --- | --- | --- | --- | --- | --- |
| Anti-cTnI 7B9 monoclonal antibody (recombinant, Sample 1) (antibody, mouse IgG1, kappa, V domains shown, Recombinant mouse antibody expressed in CHO cells; also called WT; Anti-cTnI 7B9 antibody) VH: QVQLQQSGTELAKPGASVKFSCKASDYTFSTYWMYWIKQRPGQGLEWIGYLNPSSGHTEYNQRFKDKATLTADKSSSTAYMQLNSLTSEDSAVYYCARKYFGPFAMDYWGQGTSVTVSS VL: EIFLTQSPAIMSASPGEKVTMTCSASTTVSYAHWYQQKSGTSPKRWLYDSSKIASGIPVRFSGSGSGTSYSLTISSMEAEDAATYYCQNWSTQPYTFGGGTKLEIKR | 12.9 | 0.000368 | 28600 | 12.9 | 0.000368 | 28600 | 0.174 | 0.475 | 0.947 | 1.7 | 1.88 | 2.01 | 2.1 | 0.144 |
| Mutation 1 (antibody, V domains shown, other CDR sites as WT) VH: QVQLQQSGTELAKPGASVKFSCKASGYTFSTYWMYWIKQRPGQGLEWIGYLNPSSGHTDYNQRFKDKATLTADKSSSTAYMQLNSLTSEDSAVYYCARKYFGPFGMDYWGQGTSVTVSS VL: EIFLTQSPAIMSASPGEKVTMTCSASTTVSYVHWYQQKSGTSPKRWLYDTSKIASGIPVRFSGSGSGTSYSLTISSMEAEDAATYYCQQWSTQPYTFGGGTKLEIKR | 9.96 | 0.000263 | 26400 | 9.96 | 0.000263 | 26400 | 1.03 | 1.97 | 2.34 | 2.36 | 2.4 | 2.4 | 2.34 | 0.193 |
| Mutation 3 (antibody, V domains shown, other CDR sites as WT) VH: QVQLQQSGTELAKPGASVKFSCKASIYTFSTYWMYWIKQRPGQGLEWIGYLNPSSGHTGYNQRFKDKATLTADKSSSTAYMQLNSLTSEDSAVYYCARKYFGPFVMDYWGQGTSVTVSS VL: EIFLTQSPAIMSASPGEKVTMTCSASTTVSYIHWYQQKSGTSPKRWLYDTSKIASGIPVRFSGSGSGTSYSLTISSMEAEDAATYYCQRWSTQPYTFGGGTKLEIKR | 17.8 | 0.000481 | 27000 | – | – | – | 0.367 | 0.978 | 1.41 | 2 | 2 | 2.11 | 2.21 | 0.204 |
| Mutation 2 (antibody, V domains shown, other CDR sites as WT) VH: QVQLQQSGTELAKPGASVKFSCKASLYTFSTYWMYWIKQRPGQGLEWIGYLNPSSGHTEYNQRFKDKATLTADKSSSTAYMQLNSLTSEDSAVYYCARKYFGPFIMDYWGQGTSVTVSS VL: EIFLTQSPAIMSASPGEKVTMTCSASTTVSYAHWYQQKSGTSPKRWLYDTSKIASGIPVRFSGSGSGTSYSLTISSMEAEDAATYYCQVWSTQPYTFGGGTKLEIKR | 15.6 | 0.000434 | 27800 | – | – | – | 0.528 | 1.15 | 1.61 | 2.13 | 2.17 | 2.3 | 2.33 | 0.224 |
